Drawing on article PMC6200766, “Fisetin targets YB-1/RSK axis independent of its effect on ERK signaling: insights from in vitro and in vivo melanoma models” (Scientific Reports, 2018), this text covers Kd for 1 molecule.

Common to all, as to settings: both partners purified
The target of experiment [1] is T1, RPS6KA3 (RSK2, 86.3 kDa) recombinant human protein, full length, HIS-tag (human, UniProt P51812 1-740).
T1 construct: p90 ribosomal S6 kinase 2 (RSK2, RPS6KA3), human, full length, 86.3 kDa; source: bought: Life Technologies, Italy
Nature of the experiment: SPR; Biacore T-200, 25 °C; GST-YB-1 (51-139) amine-coupled on a CM5 chip; RSK2 flowed at 50, 25, 12.5, 6.25, 3.125, 0 nM, 30 ul/min; 10 mM HEPES pH 7.4, 150 mM NaCl, 3 mM EDTA, 0.05% P20, 0.1% BSA; full kinetics. For orientation: In SPR one partner is held on a chip, and binding of the other changes the refractive index at the surface.

The target of experiment [2] is T2, RPS6KA1 (RSK1, 88.5 kDa) recombinant human protein, full length, HIS-tag (human, UniProt Q15418 1-735).
T2 construct: p90 ribosomal S6 kinase 1 (RSK1, RPS6KA1), human, full length, 88.5 kDa; source: bought: Life Technologies, Italy
The experiment can be described thus: SPR; Biacore T-200, 25 °C; GST-YB-1 (51-139), 60 RU, amine-coupled on a CM5 chip; RSK1 or RSK2 flowed at 100-0 nM without BSA, 30 ul/min; full kinetics; KD from ka and kd or steady state.

The target of experiment [3] is T1, RPS6KA3 (RSK2, 86.3 kDa) recombinant …. The description is as above.

T1 sequence (P51812 whole entry): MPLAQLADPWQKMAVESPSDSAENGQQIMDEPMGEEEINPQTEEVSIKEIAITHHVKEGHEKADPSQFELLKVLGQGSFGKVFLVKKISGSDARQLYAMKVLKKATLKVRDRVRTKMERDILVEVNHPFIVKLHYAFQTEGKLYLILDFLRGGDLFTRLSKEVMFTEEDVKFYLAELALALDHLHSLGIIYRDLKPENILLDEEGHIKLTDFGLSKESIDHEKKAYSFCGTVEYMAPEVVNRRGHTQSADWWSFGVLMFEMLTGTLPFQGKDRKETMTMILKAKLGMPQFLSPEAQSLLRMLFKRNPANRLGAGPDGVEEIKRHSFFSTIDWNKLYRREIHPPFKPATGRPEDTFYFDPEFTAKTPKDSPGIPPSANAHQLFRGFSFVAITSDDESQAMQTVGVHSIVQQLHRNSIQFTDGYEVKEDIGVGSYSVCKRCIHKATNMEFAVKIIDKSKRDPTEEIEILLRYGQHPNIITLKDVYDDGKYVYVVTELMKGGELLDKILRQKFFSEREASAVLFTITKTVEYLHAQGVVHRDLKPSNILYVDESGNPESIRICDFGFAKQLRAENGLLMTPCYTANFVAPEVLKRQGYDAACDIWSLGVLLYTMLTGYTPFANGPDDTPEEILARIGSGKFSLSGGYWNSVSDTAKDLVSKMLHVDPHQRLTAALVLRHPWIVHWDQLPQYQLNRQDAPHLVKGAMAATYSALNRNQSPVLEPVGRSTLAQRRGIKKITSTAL
T2 sequence (Q15418 whole entry): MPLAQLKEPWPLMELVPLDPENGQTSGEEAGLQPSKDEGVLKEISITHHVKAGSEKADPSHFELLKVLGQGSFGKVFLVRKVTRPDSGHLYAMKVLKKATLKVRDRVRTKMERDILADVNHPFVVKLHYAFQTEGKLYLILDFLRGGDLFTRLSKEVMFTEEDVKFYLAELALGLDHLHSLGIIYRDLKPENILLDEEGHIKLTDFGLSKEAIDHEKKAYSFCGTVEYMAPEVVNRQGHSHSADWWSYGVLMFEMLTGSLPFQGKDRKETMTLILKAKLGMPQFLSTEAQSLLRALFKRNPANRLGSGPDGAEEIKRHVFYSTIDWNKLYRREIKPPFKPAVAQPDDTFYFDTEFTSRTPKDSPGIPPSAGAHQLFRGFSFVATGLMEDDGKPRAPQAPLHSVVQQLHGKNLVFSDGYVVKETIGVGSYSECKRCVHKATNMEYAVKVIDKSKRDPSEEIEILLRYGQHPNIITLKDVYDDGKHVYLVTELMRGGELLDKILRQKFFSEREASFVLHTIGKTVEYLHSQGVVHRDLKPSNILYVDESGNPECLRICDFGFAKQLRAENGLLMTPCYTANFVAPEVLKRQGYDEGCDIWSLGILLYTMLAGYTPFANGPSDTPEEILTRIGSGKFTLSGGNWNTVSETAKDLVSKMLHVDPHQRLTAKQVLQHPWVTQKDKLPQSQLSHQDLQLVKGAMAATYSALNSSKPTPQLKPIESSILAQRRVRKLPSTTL

B1: YB-1 human recombinant protein with GST-tag at N-terminal (51-139 aa) (domain or fragment)
chain: not shown
notes: 35 kDa including GST tag; Immobilised by amine coupling (EDC/NHS) on a CM5 chip with its GST tag; source: bought: Abnova Corporation, Taiwan; not shown: GST, N-terminal, kept
For the molecule B1, the Kd in experiment [1] was 402 nM; in experiment [2], 246000 nM; in experiment [3] it was 534 nM.

What is called Kd is the concentration at which binding is half-saturated.
